Molecular target: polymerized MTs purified from the bovine brain (bovine) (UniProt Q6B856)
Experiment: co-sedimentation

Kd: 6 µM
Substance: GST-M1 fusion protein encompassing ACF7's M1 domain (domain or fragment)
